This experiment addresses CD20 (B-cell surface antigen CD20 on human Burkitt's B-cell non-Hodgkin's lymphoma Raji cells) (human) (UniProt P11836). Description: cell-based or functional assay.

Some results are limits rather than exact numbers.

Sequence of UniProt P11836 (P11836 whole entry): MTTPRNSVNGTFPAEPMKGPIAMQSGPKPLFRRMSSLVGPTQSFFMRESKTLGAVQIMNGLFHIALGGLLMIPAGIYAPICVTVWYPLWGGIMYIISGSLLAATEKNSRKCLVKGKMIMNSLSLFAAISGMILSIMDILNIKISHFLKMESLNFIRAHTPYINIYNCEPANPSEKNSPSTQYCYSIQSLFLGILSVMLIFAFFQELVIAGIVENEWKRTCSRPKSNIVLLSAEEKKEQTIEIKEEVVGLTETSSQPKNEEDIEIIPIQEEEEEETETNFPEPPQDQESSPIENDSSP

Consider “Fab′-MORF1 conjugate (Fab′ fragment of the mouse anti-human CD20 IgG2a mAb 1F5 tethered to the 3′ end of morpholino MORF1 via a thioether bond)”, for which the apoptosis induction, fold over untreated, Raji B-cells; 5 µM Fab′-MORF1 + P-MORF2/v3 (fold compared to untreated) came out at 7; the apoptosis of Raji B-cells, P-MORF2/v10 against P-MORF2/v3 (0.5 µM Fab′, MORF1:MORF2 = 1:1 or 1:10) (fold against P-MORF2/v3) was found to be 2; the apoptotic cells, annexin V/PI staining, Raji B-cells; 1 µM Fab′-MORF1 and equimolar P-MORF2/v3 was 40%; the apoptotic cells, fold over untreated, annexin V/PI staining, Raji B-cells; 1 µM Fab′-MORF1 and equimolar P-MORF2/v3 (fold compared to untreated) was more than 4. The same substance showed an apoptotic index (%), Annexin V/PI binding assay, Raji B-cells, 48 h; consecutive Fab′-MORF1 then Copolymer-MORF2, 0.5 µM, valence = 10, MORF1:MORF2 1:1 of 50% and an apoptotic index (%), Annexin V/PI binding assay, Raji B-cells, 48 h; consecutive Fab′-MORF1 then Copolymer-MORF2, 1 µM, valence = 3, MORF1:MORF2 1:1 of 37%.

The record behind these values is US20190167709A1.
